Experimental data as given in patent US20170253633A1.

Molecular target: HLA-A*02:01 (human)
Assay: UV-ligand exchange + anti-b2m ELISA; ++++ = peptide exchange yield >75%

- peptide exchange yield: > 75%
Binder: KLLETKWTL (modifications not checked) […]
